Measured values published in publication PMC5430550 (Scientific Reports, 2017).
Changes are numbered by the printed parent chain. Names may count otherwise.

Columns and labels:
[1] = system: RlmH E138Q (Escherichia coli (ASKA clone JW0631)); assay: competition; conditions: pseudouridine 1915 lacking N3-methylation (delta-rlmH), Single-turnover competitive methylation assay, mutant pre-incubated with heat-activated 70S ribosomes 20 min at 25 C before wild-type RlmH-[3H]SAM
[2] = system: RlmH H153F (Escherichia coli (ASKA clone JW0631)); assay: competition; conditions: pseudouridine 1915 lacking N3-methylation (delta-rlmH), Single-turnover competitive methylation assay, mutant pre-incubated with heat-activated 70S ribosomes 20 min at 25 C before wild-type RlmH-[3H]SAM
[3] = system: RlmH E138A (Escherichia coli (ASKA clone JW0631)); assay: competition; conditions: pseudouridine 1915 lacking N3-methylation (delta-rlmH), Single-turnover competitive methylation assay, mutant pre-incubated with heat-activated 70S ribosomes 20 min at 25 C before wild-type RlmH-[3H]SAM
[4] = system: RlmH R154A (Escherichia coli (ASKA clone JW0631)); assay: competition; conditions: pseudouridine 1915 lacking N3-methylation (delta-rlmH), Single-turnover competitive methylation assay, mutant pre-incubated with heat-activated 70S ribosomes 20 min at 25 C before wild-type RlmH-[3H]SAM
[5] = system: RlmH Y152F (Escherichia coli (ASKA clone JW0631)); assay: competition; conditions: pseudouridine 1915 lacking N3-methylation (delta-rlmH), Single-turnover competitive methylation assay, mutant pre-incubated with heat-activated 70S ribosomes 20 min at 25 C before wild-type RlmH-[3H]SAM
[6] = molecular target: RlmH (ribosomal large-subunit methyltransferase H) (Escherichia coli, UniProt P0A8I8, E138A); assay: isothermal titration calorimetry, sequential binding model; conditions: 50 mM sodium phosphate pH 6.8, 200 mM KCl, 5% glycerol, 1 mM β-mercaptoethanol, 25 °C; first SAM site of the dimer; read-out: Calculated K D1
Chain of RlmH (ribosomal large-subunit methyltransferase H) (Escherichia coli, UniProt P0A8I8, E138A) (P0A8I8 2-155 E138A): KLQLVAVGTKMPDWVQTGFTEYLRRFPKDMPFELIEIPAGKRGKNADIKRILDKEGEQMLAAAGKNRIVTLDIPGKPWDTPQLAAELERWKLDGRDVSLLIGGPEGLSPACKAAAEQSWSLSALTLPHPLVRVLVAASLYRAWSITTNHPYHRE
Excerpt: (§1) isothermal titration calorimetry, sequential binding model on RlmH (ribosomal large-subunit methyltransferase H)

[7] = molecular target: T1, RlmH (ribosomal large-subunit methyltransferase H) (Escherichia coli, UniProt P0A8I8); assay: as above; conditions: 50 mM sodium phosphate pH 6.8, 200 mM KCl, 5% glycerol, 1 mM β-mercaptoethanol, 25 °C; first SAM site of the dimer; read-out: Calculated K D1
T1 construct: full length (155 residues, ~17 kDa), first Met replaced by MHHHHHHV (N-terminal His6 tag kept), expressed in E. coli BLR(DE3), homodimer
Excerpt: as §1

[8] = molecular target: RlmH (ribosomal large-subunit methyltransferase H) (Escherichia coli, UniProt P0A8I8, E138Q); assay: as above; conditions: 50 mM sodium phosphate pH 6.8, 200 mM KCl, 5% glycerol, 1 mM β-mercaptoethanol, 25 °C; first SAM site of the dimer; read-out: Calculated K D1
Chain of RlmH (ribosomal large-subunit methyltransferase H) (Escherichia coli, UniProt P0A8I8, E138Q) (P0A8I8 2-155 E138Q): as the sequence (P0A8I8 2-155 E138A) above, with A137Q counted along it
Excerpt: as §1

[9] = molecular target: T1, RlmH (ribosomal large-subunit methyltransferase H); assay: X-ray crystal structure, […] Å; conditions: co-crystallised with 2 mM sinefungin, pH 8.5, 16 °C; SAM-binding pocket, two ligands per dimer
[10] = molecular target: the molecule itself; assay: SEC-MALS; Superdex S-200 HR10/30; 50 mM potassium phosphate pH 7.0, 300 mM KCl, 2 mM DTT, 5% glycerol; dialyzed protein injected at ~20 and ~200 µM (0.35 mg/ml and 3.85 mg/ml); same result at both

delta-rlmH 70S ribosome (23S rRNA helix 69, pseudouridine 1915)
IC50 [1]: 3 µM | IC50 [2]: 3 µM | IC50 [3]: 3 µM | IC50 [4]: 40 µM | IC50 [5]: 3 µM

C[S+](CC[C@H](N)C(=O)O)C[C@H]1O[C@@H](n2cnc3c(N)ncnc32)[C@H](O)[C@@H]1O (stereo partly shown) [SAM, S-adenosyl-methionine]
Kd [6]: 6.7 ± 0.77 µM | Kd [7]: 5.58 ± 0.31 µM | Kd [8]: 7.05 ± 0.56 µM

Nc1ncnc2c1ncn2[C@@H]1O[C@H](C[C@@H](N)CC[C@H](N)C(=O)O)[C@@H](O)[C@H]1O [SFG, sinefungin]
X-ray crystal structure, 2.1 Å [9]: crystal structures of E. coli RlmH bound to the cofactor SAM or to the inhibitor sinefungin

B1: ribosomal large-subunit methyltransferase H (RlmH), wild type, His6-tagged (enzyme, E. coli, UniProt P0A8I8 2-155, looked up)
chain: KLQLVAVGTKMPDWVQTGFTEYLRRFPKDMPFELIEIPAGKRGKNADIKRILDKEGEQMLAAAGKNRIVTLDIPGKPWDTPQLAAELERWKLDGRDVSLLIGGPEGLSPACKAAAEQSWSLSALTLPHPLVRVLVAESLYRAWSITTNHPYHRE
notes: RlmH (YbeA) of E. coli, 155 amino acids; rlmH gene from ASKA clone JW0631 in pET24b; no cleavage of the tag is described; Limits 2-155 follow from 'first methionine is replaced' and '155 amino acids'; also called YbeA; WT; source: E. coli BLR(DE3), purified (nickel IMAC twice, SEC on Superdex75); not shown: His6, N-terminal, kept
stoichiometry N [10]: 2

B2: RlmH H153F, His6-tagged (enzyme, E. coli, UniProt P0A8I8 2-155, looked up)
chain: B1 chain with H152F
notes: RlmH (YbeA) of E. coli, 155 amino acids; source: E. coli BLR(DE3), purified as the wild-type protein; not shown: His6, N-terminal, kept
stoichiometry N [10]: 2

B3: RlmH R154A, His6-tagged (enzyme, E. coli, UniProt P0A8I8 2-155, looked up)
chain: B1 chain with R153A
notes: as for B2
stoichiometry N [10]: 2

B4: RlmH Y152F, His6-tagged (enzyme, E. coli, UniProt P0A8I8 2-155, looked up)
chain: B1 chain with Y151F
notes: as for B2
stoichiometry N [10]: 2
